Numbering of substitutions follows the chain as printed.
T1: ヒトFas抗原 (ヒトリンパ球細胞株HPB−ALL細胞上) (human, UniProt P25445 26-335)
T1 sequence (looked up): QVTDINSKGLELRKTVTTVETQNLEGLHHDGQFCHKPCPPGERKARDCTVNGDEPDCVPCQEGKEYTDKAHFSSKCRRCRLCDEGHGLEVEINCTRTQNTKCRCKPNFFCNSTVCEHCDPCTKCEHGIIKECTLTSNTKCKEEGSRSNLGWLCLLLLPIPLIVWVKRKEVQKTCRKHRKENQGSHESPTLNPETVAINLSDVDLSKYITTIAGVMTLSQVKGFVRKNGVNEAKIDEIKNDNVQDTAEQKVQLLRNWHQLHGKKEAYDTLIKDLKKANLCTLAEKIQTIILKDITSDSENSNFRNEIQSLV

B1: 抗ヒトFasヒト化抗体 [B] (pHμM1-1 及び pHκKY2-58 でコ・トランスフェクションしたCOS-7細胞の発現産物; HμM鎖 + VL-KY鎖) (antibody)
heavy: EVQLVQSGAEVKKPGASVKVSCKASGYTFTDYNMHWVKQAHGKSLEWMGYIYPYNGGTGYNQKFKSKATLTVDNSASTAYMELSSLRSEDTAVYYCARSYYAMDYWGQGTLVTVSSGSASAPTLFPLVSCENSPSDTSSVAVGCLAQDFLPDSITFSWKYKNNSDISSTRGFPSVLRGGKYAATSQVLLPSKDVMQGTDEHVVCKVQHPNGNKEKNVPLPVIAELPPKVSVFVPPRDGFFGNPRKSKLICQATGFSPRQIQVSWLREGKQVGSGVTTDQVQAEAKESGPTTYKVTSTLTIKESDWLSQSMFTCRVDHRGLTFQQNASSMCVPDQDTAIRVFAIPPSFASIFLTKSTKLTCLVTDLTTYDSVTISWTRQNGEAVKTHTNISESHPNATFSAVGEASICEDDWNSGERFTCTVTHTDLPSPLKQTISRPKGVALHRPDVYLLPPAREQLNLRESATITCLVTGFSPADVFVQWMQRGQPLSPEKYVTSAPMPEPQAPGRYFAHSILTVSEEEWNTGETYICVVAHEALPNRVTERTVDKSTGKPTLYNVSLVMSDTAGTCY
light: DVVMTQSPLSLPVTLGQPASISCRSSKSLVHSNGNTYLHWYLQKPGQSPKLLIYKVSNRFSGVPDRFSGSGSGTDFTLKISRVEAEDVGVYYCSQSTHVPPAFGQGTKVEIKRTVAAPSVFIFPPSDEQLKSGTASVVCLLNNFYPREAKVQWKVDNALQSGNSQESVTEQDSKDSTYSLSSTLTLSKADYEKHKVYACEVTHQGLSSPVTKSFNRGEC
B2: 抗ヒトFasヒト化抗体 [D] (pHμM1-1 及び pHκRY2-10; HμM鎖 + VL-RY鎖) (antibody, human IgM)
heavy: B1 heavy
light: B1 light with K50R
B3: 抗ヒトFasヒト化抗体 [G] (pHμH5-1 及び pHκKF2-19; HμH鎖 + VL-KF鎖) (antibody, human IgM)
heavy: B1 heavy with K38R, H41P, K43Q, S44G
light: B1 light with Y92F
B4: 抗ヒトFasヒト化抗体 [I] (pHμH5-1 及び pHκRF2-52; HμH鎖 + VL-RF鎖) (antibody, human IgM)
heavy: B1 heavy with K38R, H41P, K43Q, S44G
light: B1 light with K50R, Y92F
B5: 抗ヒトFasヒト化抗体 [E] (pHμM1-1 及び pHκRF2-52; HμM鎖 + VL-RF鎖) (antibody, human IgM)
heavy: B1 heavy
light: B1 light with K50R, Y92F
B6: 抗ヒトFasヒト化抗体 [C] (pHμM1-1 及び pHκKF2-19; HμM鎖 + VL-KF鎖) (antibody, human IgM)
heavy: B1 heavy
light: B1 light with Y92F
B7: マウス抗ヒトFas抗体CH11(MBL社) (antibody, mouse IgM)
heavy: EVQLQQSGPELVKPGASVKISCKASGYTFTDYNMHWVKQSHGKSLEWIGYIYPYNGGTGYNQKFKSKATLTVDNSSSTAYMELRSLTSEDSAVYYCARSYYAMDYWGQGTSVTVSSESQSFPNVFPLVSCESPLSDKNLVAMGCLARDFLPSTISFTWNYQNNTEVIQGIRTFPTLRTGGKYLATSQVLLSPKSILEGSDEYLVCKIHYGGKNRDLHVPIPAVAEMNPNVNVFVPPRDGFSGPAPRKSKLICEATNFTPKPITVSWLKDGKLVESGFTTDPVTIENKGSTPQTYKVISTLTISEIDWLNLNVYTCRVDHRGLTFLKNVSSTCAASPSTDILTFTIPPSFADIFLSKSANLTCLVSNLATYETLNISWASQSGEPLETKIKIMESHPNGTFSAKGVASVCVEDWNNRKEFVCTVTHRDLPSPQKKFISKPNEVHKHPPAVYLLPPAREQLNLRESATVTCLVKGFSPADISVQWLQRGQLLPQEKYVTSAPMPEPGAPGFYFTHSILTVTEEEWNSGETYTCVVGHEALPHLVTERTVDKSTGKPTLYNVSLIMSDTGGTCY
light: DVVMTQSPLSLPVSLGDQASISCRSSKSLVHSNGNTYLHWYLQKPGQSPKLLIYKVSNRFSGVPDRFSGSGSGTDFTLKISRVEAEDLGVYFCSQSTHVPPAFGGGTKLEIKRADAAPTVSIFPPSSEQLTSGGASVVCFLNNFYPKDINVKWKIDGSERQNGVLNSWTDQDSKDSTYSMSSTLTLTKDEYERHNSYTCEATHKTSTSPIVKSFNRNEC
chain: DDEATILADNKCMCTRVTSRIIPSTEDPNEDIVERNIRIVVPLNNRENISDPTSPLRRNFVYHLSDVCKKCDPVEVELEDQVVTATQSNICNEDDGVPETCYMYDRNKCYTTMVPLRYHGETKMVQAALTPDSCYPD

molecular target: T1, ヒトFas抗原 (ヒトリンパ球細胞株HPB−ALL細胞上); assay: cell-based or functional assay

Row | Binder | ED 50 (細胞生存率が50%になるIgMの濃度; HPB-ALL 細胞, WST-1)
1 | B1 | 1.1 ng/mL
2 | B2 | 1.7 ng/mL
3 | B3 | 2.4 ng/mL
4 | B4 | 3.4 ng/mL
5 | B5 | 1.5 ng/mL
6 | B6 | 1 ng/mL
7 | B7 | 10.7 ng/mL

Reference: patent JPH10324699A (dated 1998)
